Source: article PMC5467210 (2017)

Legend:
[1] = target: T1, NatA complex (Naa15-Naa10ΔC-His6) (Chaetomium thermophilum); test: ITC; HypK-StrepII variants (100-400 μM) in the syringe, preformed NatA (Naa15-Naa10ΔC-His6, 10-40 μM) in the cell; 25 °C; 20 mM HEPES pH 7.5, 150 mM NaCl, 10 mM MgCl2, 10 mM KCl; single-site model; triplicates
T1 chain 1: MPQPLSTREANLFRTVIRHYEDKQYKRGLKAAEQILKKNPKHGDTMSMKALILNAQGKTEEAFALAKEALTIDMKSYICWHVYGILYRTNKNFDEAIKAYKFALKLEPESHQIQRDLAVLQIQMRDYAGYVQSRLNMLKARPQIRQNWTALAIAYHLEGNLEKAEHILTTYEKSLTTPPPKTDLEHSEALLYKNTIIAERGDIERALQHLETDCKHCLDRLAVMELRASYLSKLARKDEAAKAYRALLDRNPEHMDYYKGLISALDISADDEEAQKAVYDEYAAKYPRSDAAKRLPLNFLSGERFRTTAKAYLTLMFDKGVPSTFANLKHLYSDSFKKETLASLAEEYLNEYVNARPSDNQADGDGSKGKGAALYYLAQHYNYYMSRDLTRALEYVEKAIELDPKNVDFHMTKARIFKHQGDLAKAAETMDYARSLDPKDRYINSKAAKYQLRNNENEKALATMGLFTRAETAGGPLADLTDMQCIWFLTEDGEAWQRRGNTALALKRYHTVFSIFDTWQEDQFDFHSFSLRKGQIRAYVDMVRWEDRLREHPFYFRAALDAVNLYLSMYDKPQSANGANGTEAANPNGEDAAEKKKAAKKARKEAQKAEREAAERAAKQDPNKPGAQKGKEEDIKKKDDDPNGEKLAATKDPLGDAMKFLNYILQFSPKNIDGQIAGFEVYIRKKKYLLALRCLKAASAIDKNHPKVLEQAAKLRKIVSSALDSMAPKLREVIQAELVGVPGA
T1 chain 2: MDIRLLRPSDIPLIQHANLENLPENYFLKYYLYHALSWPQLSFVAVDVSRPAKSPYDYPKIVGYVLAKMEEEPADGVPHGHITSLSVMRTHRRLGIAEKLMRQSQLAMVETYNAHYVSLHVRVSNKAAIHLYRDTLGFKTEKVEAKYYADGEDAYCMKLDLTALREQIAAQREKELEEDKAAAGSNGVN

[2] = target: NatA complex (His6-Naa15-Naa10ΔC-His6) (Chaetomium thermophilum); test: SEC-MALS; NatA-HypK complex (0.2 mg) on Superdex 200 10/300 in SEC buffer coupled to MALS
[3] = target: T1, NatA complex (Naa15-Naa10ΔC-His6); test: ITC

Molecule: HypK-StrepII (full length) (natural protein)
- Kd [1]: 38.3 nM

Molecule: His6-HypK (full length) (natural protein)
- stoichiometry N [2]: 1

B1: HypKΔN50-StrepII (domain or fragment)
chain: MAPAREVDQEAVKNAMSALSGASTEKKEVKKVKVDPADVNLLVEELELSKAKATELLKAHDGDAIKAMKAYIQPAF
- Kd [3]: 28.6 nM

B2: HypK-THB-StrepII (domain or fragment)
chain: GAMGKVDPADVNLLVEELELSKAKATELLKAHDGDAIKAMKAYIQPAFGSGSGSWSHPQFEK
- Kd [3]: 46.9 nM
